{"source": "the supplement of paper PMC9170038"}
{"test_system": "MS2 coat protein", "test": "apparent KD of MS2 coat protein; higher = weaker reporter binding", "conditions": "Eterna round: R107; input ligand: theophylline 2 mM", "in_short": "(§1)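 Apparent KD per design is the median of normalised cluster binding-curve fits. Designed RNA switches transcribed on-chip from Illumina sequencing clusters were titrated with SNAP-549-labelled MS2 coat protein in twofold steps from 0.7 or 1.5 nM to 3 µM, with 0.8–1.5 h down to 10–20 min per step. Buffer: 100 mM Tris-HCl pH 7.5, 80 mM KCl, 4 mM MgCl2, without or with constant ligand.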", "units": {"apparent KD of MS2 coat protein": "nM"}}
{"sequence": "GGGCGCUAUCCCGCGAGGGAUAGCGUUCGGCGAGGACCGGUACGGCCGCCACUCGAACGAGUGGGUACAUGAGGAUCACCCAUGU [Faa]", "apparent KD of MS2 coat protein": 36.3}
{"sequence": "AUAUAUAUAUAGAAAUAUAUAUAUAUGUAACGAGGACCGGUACGGCCGCCACUCGUGCCGGUGAUAACAUGAGGAUCACCCAUGU [Ex_TrypA - Every engine approves!]", "apparent KD of MS2 coat protein": 20.3}
{"sequence": "UGUAUGUGAUUUGAUACCAGACCAGCUGGUGGUACACGAGGAUCACCCGUGUAGGUUUGGGUCCCUUGGCAGCAAAUCGCAUACU [SS Theo B #24 Ms3]", "apparent KD of MS2 coat protein": 18.1}
{"sequence": "AUUAAUUUAUUUCUCAAUUUAAUUUCAGAAGGAGCGUGAUGUUUCACAGGUAGGUCGCUGUUUACAUGAGGAUCACCCAUGUUUU [JR_SSArginiA_Sub004]", "apparent KD of MS2 coat protein": 40.4}
{"sequence": "UUAAUCAUUGAUGAAAACAUUAAUGCAGAAGGAGCGUGAUAAAACACAGGUAGGUCGCUGAAGGGAACAUGAGGAUCACCCAUGU [AstrosSSArgA#16]", "apparent KD of MS2 coat protein": 33.6}
{"sequence": "AAUAAUAAGGCGGCCGCCACUAAACAUGAGGAUCACCCAUGUCUCGAGGGCUUGCGUUGGGAAAGUAGGACCGGGCCAAUAAUAA [Exclusion - Tryptophan B (Freestyle 7)]", "apparent KD of MS2 coat protein": 14.9}
{"sequence": "GAUAUGGAAACAUGUCAGAUCCUUACCGGUCGAGGACCGGUACGGCCGCCACUCGGAAAUAUUGUACAUGAGGAUCACCCAUGUA [Ex Tryptophan A 18]", "apparent KD of MS2 coat protein": 16.1}
{"sequence": "GCUAUGGCUGGAAGGAGCGUGAAUUUCAGCGAACAUGAGGAUCACCCAUGUAAGGAUAUGGCACAGGUAGGUCGCUAGCCAUAGC [#19 Same State - Arginine B]", "apparent KD of MS2 coat protein": 15.1}
{"sequence": "GCUGCCAUACGAAGGAGCGCUGCUGCGAUGUGGCGAACAUGAGGAUCACCCAUGUGGCAGCGGCAGGUAGGUCGCGUAUGGCAGC [#02 Exclusion - Arginine B]", "apparent KD of MS2 coat protein": 297}
{"sequence": "AAAGUUGAUGAGUUGUGUUUGUGUUCGGAAGGAGCGGGAAUUAUCUCAGGUAGGUCGCCGAACAUGAGGAUCACCCAUGUAUAAA [XArg-A 18 NuV2 original #dotplot2>1]", "apparent KD of MS2 coat protein": 206}
{"sequence": "UAAUGCAGGUCGGCCGCCACUACAAACAUGAGGAUCACCCAUGUAGUUACUGGGUGAAGUGGCAGUAGGACCGGGACCUGCAUAA [Trp-Ms2-T'-M'-T''_Design1]", "apparent KD of MS2 coat protein": 1040}
{"sequence": "GACAUGAGGAUCGAUACCAGCGACAUGAGGAUCACAUGAGGAUCACCCAUGUGUAGUAUACGCCCUUGGCAGCGAACAUGAGGAU [Same State Theophylline B 3]", "apparent KD of MS2 coat protein": 39.2}
{"sequence": "UAAACUACACAUGAGGAUCACCCAUGUGGCCGAGGACCGGUACGGCCGCCACUCGUGUGUUAAUAAAAGAACUGCAAAGUUCCUU [Aquen]", "apparent KD of MS2 coat protein": 504}
{"sequence": "UGUAUGUGAUCUGAUACCAGUCCAACUGGUAAAGCGUGAGGAUCACCCAUGCAAAAUUGGGACCCUUGGCAGCAGAUCGCAUACU", "apparent KD of MS2 coat protein": 208}
{"test_system": "MS2 coat protein", "test": "apparent KD of MS2 coat protein; higher = weaker reporter binding", "conditions": "Eterna round: R107; input ligand: tryptophan 2.4 mM", "in_short": "as §1", "units": {"apparent KD of MS2 coat protein": "nM"}}
{"sequence": "AAUAAUCUAGGUGAUACCAGCUCAACAUGAGGAUCACCCAUGUGCUCAUGAAGAGCUGAGAGCCCUUGGCAGCACCUAGAUAAUA [(Theo1)-(Ms2)-(M)'-(T)'-(Theo2)_Design2]", "apparent KD of MS2 coat protein": 1100}
{"sequence": "GGACAUGCAGGAAGGAGCGACACAGCAGAAACUGCAAAUCCUCCACACGAGGAUCACCCGUGUCAGGUAGGUCGCCUGCAUGUCG [ArgXB 14 #Zipper #MS2Left #StaticStem #Blueprint]", "apparent KD of MS2 coat protein": 80.2}
{"sequence": "GGAUAGGACACGGCCGCCACUACCUAGGAUACUAGCAACAUUUGGGUGCACGAGGAUCACCCGUGUAGGACCGGGUGUCCUAUCG", "apparent KD of MS2 coat protein": 291}
{"sequence": "ACCUACACGGAAACGUGUAGAAGUAAUGAUACCAGCAUGGAAACAUGCCCUUGGCAGCGUUACAUGAGGAUCACCCAUGUAUGUU [#01 Exclusion-TheophyllineA]", "apparent KD of MS2 coat protein": 15.4}
{"sequence": "ACGAACGAUAGUGAUACCAGACGUACAUGAGGAUCACCCAUGUUAUACACAUGGUUUAUUGUCCCUUGGCAGCACGAUAAGUUCG [JR_ExcTheophyB_Sub004]", "apparent KD of MS2 coat protein": 282}
{"sequence": "GACCGAUUAUAGUGCGAUUCUCUUGUGGAAGGAGCGCAGAGGACUGCAGGUAGGUCGCCACAUGAGGAUCACCCAUGUCAGGAUA [Esxebiat]", "apparent KD of MS2 coat protein": 10.6}
{"sequence": "UUUACAUGAGGAUCACCCAUGUGCCAUGAUACCAGACAUGAAAAUGUCCCUUGGCAGCAUGAGUGAUUCAUCCGAAAGGAUGUUU [Jehnice]", "apparent KD of MS2 coat protein": 103}
{"sequence": "CAGGUGGACUGAAGGAGCGAGUCAGGGACUUACAUGAGGAUCACCCAUGUCACGGUCGUCACUCAGGUAGGUCGCAGUUCGCCUC [Diinan]", "apparent KD of MS2 coat protein": 231}
{"sequence": "GGUUGAAACUGAAGGAGCGAGAUCACAAGAUUGGGUCUAACAUGAGGAUCACCCAUGUAAUCUCAGGUAGGUCGCAGUGACCAAA [Exclusion Arginine B GF 13]", "apparent KD of MS2 coat protein": 38.1}
{"sequence": "UGGGUAGAAUAGAUAGAUAGAUAAACUGAAGGAGCGAGAAUAAACUCAGGUAGGUCGCAGACAUGAGGAUCACCCAUGUAGAUGG [Same State Arginine A GF15]", "apparent KD of MS2 coat protein": 88.9}
{"sequence": "GGACUAACCAGAAGGAGCGACACGCAGAAACUGCAAAUUCCUCCACACGAGGAUCACCCGUGUCAGGUAGGUCGCUGGUUAGUCG", "apparent KD of MS2 coat protein": 22.2}
{"sequence": "ACGUAAUGCAGAAGGAGCGUCUUAUGUAUACAUGAGGAUCACCCAUGUAAUAUGUGGUUGAGACAGGUAGGUCGCUGAAGUACGA [JR_SSArginiB_Sub009]", "apparent KD of MS2 coat protein": 58.7}
{"sequence": "UAUCCACAUGAGGAUCACCCAUGUUAGGAAGGAGCGGUGAAUGAACCAGGUAGGUCGCCUAGCUGAGGACCAUCGAUGGAUUCGU [Exclusion - Arginine A (Freestyle 15)]", "apparent KD of MS2 coat protein": 20.1}
{"sequence": "CGGUAGGUAGGUCGAUAUCUACCCGUAGAAGGAGCGUAAGAAAAUACAGGUAGGUCGCUACGGAACAUGAGCAUCAGCCAUGUCC [SSArg A #12-Alt Ms2]", "apparent KD of MS2 coat protein": 12.6}
{"sequence": "AGUCUUAAUGGAAGGAGCGCAGUCAUAACAUGAGGAUCACCCAUGUCGAGGUGAGGGUCAUUGCAGGUAGGUCGCCAUACUAAGA [Same State - Arginine B (Freestyle 3)]", "apparent KD of MS2 coat protein": 245}
{"sequence": "GGGCGCUAUCCCGCGAGGGAUAGCGUUCGGCGAGGACCGGUACGGCCGCCACUCGAACGAGUGGGUACAUGAGGAUCACCCAUGU [Faa]", "apparent KD of MS2 coat protein": 30.6}
{"sequence": "AUAUAUAUAUAGAAAUAUAUAUAUAUGUAACGAGGACCGGUACGGCCGCCACUCGUGCCGGUGAUAACAUGAGGAUCACCCAUGU [Ex_TrypA - Every engine approves!]", "apparent KD of MS2 coat protein": 20}
{"sequence": "UGUAUGUGAUUUGAUACCAGACCAGCUGGUGGUACACGAGGAUCACCCGUGUAGGUUUGGGUCCCUUGGCAGCAAAUCGCAUACU [SS Theo B #24 Ms3]", "apparent KD of MS2 coat protein": 54.5}
{"sequence": "AUUAAUUUAUUUCUCAAUUUAAUUUCAGAAGGAGCGUGAUGUUUCACAGGUAGGUCGCUGUUUACAUGAGGAUCACCCAUGUUUU [JR_SSArginiA_Sub004]", "apparent KD of MS2 coat protein": 31.8}
{"sequence": "UUAAUCAUUGAUGAAAACAUUAAUGCAGAAGGAGCGUGAUAAAACACAGGUAGGUCGCUGAAGGGAACAUGAGGAUCACCCAUGU [AstrosSSArgA#16]", "apparent KD of MS2 coat protein": 30.8}
{"sequence": "AAUAAUAAGGCGGCCGCCACUAAACAUGAGGAUCACCCAUGUCUCGAGGGCUUGCGUUGGGAAAGUAGGACCGGGCCAAUAAUAA [Exclusion - Tryptophan B (Freestyle 7)]", "apparent KD of MS2 coat protein": 13.3}
{"sequence": "GCUAUGGCUGGAAGGAGCGUGAAUUUCAGCGAACAUGAGGAUCACCCAUGUAAGGAUAUGGCACAGGUAGGUCGCUAGCCAUAGC [#19 Same State - Arginine B]", "apparent KD of MS2 coat protein": 13.4}
{"sequence": "GCUGCCAUACGAAGGAGCGCUGCUGCGAUGUGGCGAACAUGAGGAUCACCCAUGUGGCAGCGGCAGGUAGGUCGCGUAUGGCAGC [#02 Exclusion - Arginine B]", "apparent KD of MS2 coat protein": 206}
{"sequence": "AAAGUUGAUGAGUUGUGUUUGUGUUCGGAAGGAGCGGGAAUUAUCUCAGGUAGGUCGCCGAACAUGAGGAUCACCCAUGUAUAAA [XArg-A 18 NuV2 original #dotplot2>1]", "apparent KD of MS2 coat protein": 82.6}
{"sequence": "UCAAGUGAACCAUGGAAACAUUCAAUAGAUACCAGCAUUAAAACCUGCCCUUGGCAGCUAUGAACAUGAGGAUCACCCAUGUGAA [theeternabot_exclusion_MS2_Theo_A_21]", "apparent KD of MS2 coat protein": 19.2}
{"sequence": "GACAUGAGGAUCGAUACCAGCGACAUGAGGAUCACAUGAGGAUCACCCAUGUGUAGUAUACGCCCUUGGCAGCGAACAUGAGGAU [Same State Theophylline B 3]", "apparent KD of MS2 coat protein": 32.3}
{"sequence": "UGUAUGUGAUCUGAUACCAGUCCAACUGGUAAAGCGUGAGGAUCACCCAUGCAAAAUUGGGACCCUUGGCAGCAGAUCGCAUACU", "apparent KD of MS2 coat protein": 185}
